Laboratory results taken from patent US20080050387A1, “Non-Androgen Dependent Roles for Androgen Receptor and Non-Androgen Related Inhibitors of Androgen Receptor” (priority 2003, published 2008).
Like-named read-outs stand apart in the source and are kept apart here.

Tests used:
ARN = target: T1, ARN (Homo sapiens, UniProt P10275); assay: Mammalian two-hybrid assay ARA67 / ARN in H1299 cells; type: cell-based; details: pM-ARA67 and pVP16-ARN, pG5-Luc
T1 construct: The AR has a large N-terminus (ARN); expressed in transfected cells; host or cells: H1299
T1 sequence (P10275 1-559 limits assumed): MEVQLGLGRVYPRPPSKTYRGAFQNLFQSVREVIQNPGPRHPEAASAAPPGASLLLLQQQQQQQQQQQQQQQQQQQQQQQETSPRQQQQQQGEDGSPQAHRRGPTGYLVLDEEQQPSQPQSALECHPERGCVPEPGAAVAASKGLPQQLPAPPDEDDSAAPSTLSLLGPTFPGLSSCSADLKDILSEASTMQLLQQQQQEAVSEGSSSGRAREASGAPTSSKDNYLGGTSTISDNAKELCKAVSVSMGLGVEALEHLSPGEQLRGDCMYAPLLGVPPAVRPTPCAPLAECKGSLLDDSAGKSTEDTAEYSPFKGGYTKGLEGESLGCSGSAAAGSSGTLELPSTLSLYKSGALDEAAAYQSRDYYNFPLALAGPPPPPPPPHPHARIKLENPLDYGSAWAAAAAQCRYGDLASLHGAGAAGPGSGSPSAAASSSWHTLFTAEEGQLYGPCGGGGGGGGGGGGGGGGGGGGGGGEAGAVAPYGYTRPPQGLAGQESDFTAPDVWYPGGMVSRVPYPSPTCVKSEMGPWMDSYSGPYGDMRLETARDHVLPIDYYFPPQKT
T1 sequence (Q92624 1-585 partner): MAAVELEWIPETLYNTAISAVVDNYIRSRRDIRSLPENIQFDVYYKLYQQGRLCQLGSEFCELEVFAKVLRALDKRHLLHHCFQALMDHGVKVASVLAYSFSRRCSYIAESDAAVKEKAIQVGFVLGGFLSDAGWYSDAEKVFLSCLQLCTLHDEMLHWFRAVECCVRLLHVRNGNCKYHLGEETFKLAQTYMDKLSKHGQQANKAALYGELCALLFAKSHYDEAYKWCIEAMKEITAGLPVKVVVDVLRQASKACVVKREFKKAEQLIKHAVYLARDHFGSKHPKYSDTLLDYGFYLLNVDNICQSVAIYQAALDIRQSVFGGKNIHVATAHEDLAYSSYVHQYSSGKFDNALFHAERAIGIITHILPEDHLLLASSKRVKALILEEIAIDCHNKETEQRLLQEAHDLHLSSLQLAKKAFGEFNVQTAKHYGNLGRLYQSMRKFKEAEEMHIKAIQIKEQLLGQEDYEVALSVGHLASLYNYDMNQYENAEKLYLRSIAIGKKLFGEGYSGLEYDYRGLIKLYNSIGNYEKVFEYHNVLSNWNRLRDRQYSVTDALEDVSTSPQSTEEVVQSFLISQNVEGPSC
Procedure: (§1) H1299 and COS-1 cells were maintained in Dulbecco's modified Eagle's medium (DMEM) (Life Technologies, Inc.) supplemented with 10% heat inactivated fetal bovine serum (FBS). LNCap cells were maintained in RPMI 1640 supplemented with […]. All media contain 100 units penicillin, 100 μg/ml streptomycin and 2 mM L-glutamine. Cells were seeded to a density of 50-60% confluency for transfection. In transfections where H1299 and COS-1 cells were used, the calcium phosphate precipitation method was used as described (Pan H J, et al. 1999. Endocrine 11:321-327) unless otherwise noted. […] In other reporter gene assays, where ligand treatment was required, cell culture media were changed to DMEM containing 10% charcoal-dextran-stripped FBS (CD-FBS) 2 h before transfection. After 16-18 h transfection, cells were treated with medium containing either vehicle or ligands for another 20-24 h and then cells were harvested. With LNCap cells transfection, the cells were treated with fresh RPMI 1640 containing 10% CD-FBS before transfection with SuperFect performed according to the manufacturer's protocol (Qiagen). After transfection, cells were allowed to recover in fresh RPMI 1640 containing 10% CD-FBS for 8-12 h, and then treated with either vehicle or ligands for another 20-24 h before harvesting. Each experiment was repeated at least three times.

AR = AR transactivation reporter gene assay in H1299 cells with ARA67; type: cell-based, human
Procedure: as §1

AR (ARN, ARDBD, ARLBD) = assay: GST pull-down assay ARA67 / AR; type: binding, human
Procedure: GST-ARN, GST-ARA67 fusion proteins, and GST control protein were expressed in BL21 (DE3)pLysS bacteria strain (Stratagene) and purified with glutathione-Sepharose beads as instructed by the manufacturer (Amersham Pharmacia). In vitro [^35S]methionine-labeled AR, ARN, AR DBD, AR LBD and ARA67 proteins were generated using TNT-coupled Reticulocyte Lysate Systems (Promega). For in vitro interaction, mixtures of glutathione beads bound GST fusion proteins and 5 μl [^35S]methionine-labeled input proteins in 100 μl interaction buffer (20 mM Tris/pH8.0, 60 mM NaCl, 6 mM MgCl2, 1 mM EDTA, 0.05% Nonidet P-40, 1 mM DTT, 8% glycerol, 1 mM PMSF) were incubated in the presence or absence of 10 μM dihydrotestosterone (DHT) on a rotating disk at 4° C. for 2 h. After washing with NETN buffer (20 mM Tris/pH8.0, 100 mM NaCl, 6 mM MgCl2, 1 mM EDTA, 0.5% Nonidet P-40, 1 mM DTT, 8% glycerol, 1 mM PMSF) four times, the bound proteins were separated on 8-13% SDS-PAGE and visualized by autoradiography.

AR N/C interaction = assay: AR N/C interaction, mammalian two-hybrid assay in COS-1 cells; type: cell-based, human; details: 10 nM DHT
Procedure: as §1

Sequence of AR (P10275 with tags, fused parts or gaps DEL79-80/DUP473-473): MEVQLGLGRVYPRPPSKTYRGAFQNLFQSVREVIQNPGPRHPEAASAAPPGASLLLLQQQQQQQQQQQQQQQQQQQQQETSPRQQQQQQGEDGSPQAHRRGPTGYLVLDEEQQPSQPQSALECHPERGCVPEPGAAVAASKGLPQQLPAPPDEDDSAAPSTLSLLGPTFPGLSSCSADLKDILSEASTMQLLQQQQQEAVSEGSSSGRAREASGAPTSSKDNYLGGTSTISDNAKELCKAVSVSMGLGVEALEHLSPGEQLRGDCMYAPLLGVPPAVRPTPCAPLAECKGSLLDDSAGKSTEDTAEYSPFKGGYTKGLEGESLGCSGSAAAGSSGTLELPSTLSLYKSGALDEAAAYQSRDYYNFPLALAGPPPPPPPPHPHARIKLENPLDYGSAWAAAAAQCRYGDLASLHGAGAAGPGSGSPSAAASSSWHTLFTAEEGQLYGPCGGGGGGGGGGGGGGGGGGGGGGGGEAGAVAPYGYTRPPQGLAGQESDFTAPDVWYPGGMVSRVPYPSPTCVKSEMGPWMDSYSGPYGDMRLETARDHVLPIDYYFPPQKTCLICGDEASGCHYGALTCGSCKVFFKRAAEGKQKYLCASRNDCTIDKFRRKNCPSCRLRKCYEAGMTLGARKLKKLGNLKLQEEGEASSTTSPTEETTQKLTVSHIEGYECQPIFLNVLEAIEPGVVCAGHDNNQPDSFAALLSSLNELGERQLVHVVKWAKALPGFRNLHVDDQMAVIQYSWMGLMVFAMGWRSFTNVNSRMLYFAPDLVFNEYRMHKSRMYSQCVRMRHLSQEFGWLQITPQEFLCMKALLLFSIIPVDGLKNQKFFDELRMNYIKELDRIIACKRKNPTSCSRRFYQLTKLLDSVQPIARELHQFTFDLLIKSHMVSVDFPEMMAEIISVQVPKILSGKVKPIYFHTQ
Sequence of AR N/C interaction (P10275 552-919 limits assumed, one chain of several): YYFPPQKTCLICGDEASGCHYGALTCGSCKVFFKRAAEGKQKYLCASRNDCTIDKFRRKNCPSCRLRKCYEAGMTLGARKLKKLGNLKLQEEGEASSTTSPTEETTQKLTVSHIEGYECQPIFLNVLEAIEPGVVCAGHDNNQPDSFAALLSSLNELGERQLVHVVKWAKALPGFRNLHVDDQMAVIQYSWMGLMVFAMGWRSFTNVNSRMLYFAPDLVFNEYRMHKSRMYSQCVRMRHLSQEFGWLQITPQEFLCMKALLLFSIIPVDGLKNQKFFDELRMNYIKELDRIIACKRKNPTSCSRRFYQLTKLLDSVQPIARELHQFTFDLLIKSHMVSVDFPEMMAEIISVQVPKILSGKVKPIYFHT

B1: ARA67: AR N-terminal interacting protein of 585 amino acids (SEQ ID NO:1), matches PAT1; functions as a repressor of AR (protein)
chain: MAAVELEWIPETLYNTAISAVVDNYIRSRRDIRSLPENIQFDVYYKLYQQGRLCQLGSEFCELEVFAKVLRALDKRHLLHHCFQALMDHGVKVASVLAYSFSRRCSYIAESDAAVKEKAIQVGFVLGGFLSDAGWYSDAEKVFLSCLQLCTLHDEMLHWFRAVECCVRLLHVRNGNCKYHLGEETFKLAQTYMDKLSKHGQQANKAALYGELCALLFAKSHYDEAYKWCIEAMKEITAGLPVKVVVDVLRQASKACVVKREFKKAEQLIKHAVYLARDHFGSKHPKYSDTLLDYGFYLLNVDNICQSVAIYQAALDIRQSVFGGKNIHVATAHEDLAYSSYVHQYSSGKFDNALFHAERAIGIITHILPEDHLLLASSKRVKALILEEIAIDCHNKETEQRLLQEAHDLHLSSLQLAKKAFGEFNVQTAKHYGNLGRLYQSMRKFKEAEEMHIKAIQIKEQLLGQEDYEVALSVGHLASLYNYDMNQYENAEKLYLRSIAIGKKLFGEGYSGLEYDYRGLIKLYNSIGNYEKVFEYHNVLSNWNRLRDRQYSVTDALEDVSTSPQSTEEVVQSFLISQNVEGPSC
In the case of B1, the “reporter luciferase activity (association with ARN)” value (ARN) is reported as “highly induced”, the “repression of AR activity relative to PR activity” value (AR) is reported as “approximately 2.5 times” and the “suppression on AR activity” value (AR; H1299 cells, 500 ng pSG5-ARA67, MMTV-Luc, cognate ligand) is reported as 50%. The “DHT-induced AR transactivation” value (AR; H1299 cells, MMTV-Luc and ARE4-Luc, 10 nM DHT) was “suppressed”, the “ARA70N enhanced AR transactivation” value (AR; H1299 cells, PSA-Luc and ARE4-Luc, 10 nM DHT) was “repressed dose-dependently” and the “interaction with AR LBD” value (AR (ARN, ARDBD, ARLBD)) was “moderately”. The “interaction with ARDBD” value (AR (ARN, ARDBD, ARLBD)) was “very weakly”, the “interaction with ARN” value (AR (ARN, ARDBD, ARLBD)) was “most strongly” and the “interaction with GST-ARN fragment ARN1-140” value (AR (ARN, ARDBD, ARLBD); [35S]methionine-labeled ARA67) was “positive interaction”. For the same molecule, the “interaction with ARN” value (AR (ARN, ARDBD, ARLBD); listed as full length ARA67) was “strong interaction”, the “interaction with AR, DHT dependence” value (AR (ARN, ARDBD, ARLBD); presence and absence of 10 μM DHT) was “DHT independent manner” and the “DHT promoted AR N/C interaction” value (AR N/C interaction) was “slightly enhanced”.
